Source: the supplement of paper PMC10567573
± gives the standard deviation.

Assay: protein stability index of a GFP-peptide fusion (GPS, HEK-293T) (PSI 1-6); higher = more stable
Settings: c terminus: a fixed tail appended
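Note: 24-mer peptide tiles fused after GFP, lentivirally expressed, FACS-sorted into six equal bins by GFP/DsRed ratio, decoded by Illumina sequencing, PSI is the read-weighted mean bin number.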

Row | Sequence | protein stability index (treatment: DMSO) | protein stability index (treatment: MLN4924 1 uM, 8 h)
1 | RFCCCVAVIYLGYCFCGWIVLGPY [MCOLN1] | 3.41 ± 0.26 | 3.28 ± 0.48
2 | AEEYEDSSTKPPKSRRKAALSSPR [INTS3] | 5.23 ± 0.12 | 5.27 ± 0.27
3 | LYGLGSGSSYVQNGTGNAYEEEAN [CNOT7] | 4.74 ± 0.2 | 4.84 ± 0.24
4 | DYWLRRFEAEPLPENTNRQLLLQF [PI4K2A] | 2.41 ± 0.21 | 2.35 ± 0.27
5 | MDGATLCNCALEELRLVFGPLGDQ [ELF3] | 2.33 ± 0.27 | 2.4 ± 0.68
6 | HSVLQIRYSGKILKNNETLVQHGV [IQUB] | 2.09 ± 0.035 | 2.31 ± 0.28
7 | FISRTSIPNAASEEGDEDDWASNK [WEE1] | 4.3 ± 0.32 | 4.73 ± 0.31
8 | ALAEGYRYPELDTPKLDCFLSGME [TBX6] | 3.2 ± 0.48 | 3.5 ± 0.19
9 | PSDAPHAHHPLHPHLMQEHMGTNV [HNF4A] | 4.45 ± 0.24 | 4.5 ± 0.1
10 | FDDGDDIMATLGFGDSPKAEKRQI [FBF1] | 3.97 ± 0.24 | 4.32 ± 0.19
11 | FVHGLEDEMYEVRIAAVEALCMLA [INTS4] | 2.34 ± 0.61 | 2.23 ± 0.46
12 | WRRSGKYVYKPVMNQTCCPQYTIR [ATE1] | 2.03 ± 0.22 | 2.32 ± 0.32
13 | YGAVELSGAGRRKNATRETTSTLK [IRX6] | 4.56 ± 0.38 | 4.52 ± 0.29
14 | DTTRVENLIKSENYGKILVEKNEH [R3HDM1] | 4.46 ± 0.089 | 4.4 ± 0.1
15 | NIKANDYANAVLQALSNVPPLRNY [USP39] | 2.18 ± 0.21 | 2.03 ± 0.32
16 | LLVFLILVGIFILAVSRPRSSPDD [SCARA5] | 2.08 ± 0.43 | 2.07 ± 0.19
17 | VVGNWQYFFPVIFSKASSSLQLVF [MAGEA3] | 3.28 ± 0.46 | 3.11 ± 0.55
18 | GEGLRIYWGSPEEQSLLSRWNPWS [TPRG1] | 2.28 ± 0.2 | 1.9 ± 0.35
19 | TLRPDQQLHIFNTLRSHLIDKGML [CDS2] | 2.14 ± 0.28 | 2.24 ± 0.13
20 | DSQDLVASFRVTTGTSNTTAIKSI [RBBP5] | 3.46 ± 0.24 | 3.59 ± 0.26
21 | DKLRALKSQRQPRTSPSCAFRSDD [CDC14A] | 4.14 ± 0.23 | 4.15 ± 0.11
22 | ELRRNHCFQDFKEEKPQENKTWRE [ELOA2] | 3.31 ± 0.31 | 3.47 ± 0.41
23 | SLLNFLPEGVNKLKISPVTLKEAY [TENT5C] | 2.27 ± 0.23 | 2.41 ± 0.12

Row | Sequence | protein stability index (treatment: DMSO) | protein stability index (treatment: MLN4924 1 uM, 8 h)
24 | AALLQLVRRLQALRLEREEYVLLK [ESRRA] | 2.19 ± 0.37 | 1.95 ± 0.18
25 | VYNAARDGKLQLLQKLLSGRSREE [FEM1A] | 2.77 ± 0.15 | 2.79 ± 0.27
26 | QFSVVSVVAYLALAALSATISFRI [RTN1] | 2.99 ± 0.57 | 3.2 ± 0.55
27 | TSDDNLLKNIELFDKLALRFHGRL [KCTD13] | 2.48 ± 0.2 | 2.46 ± 0.4
28 | AWKDDFALNSMLRRRFREKKKAIQ [YJU2B] | 3.27 ± 0.36 | 3.37 ± 0.13
29 | PPSGSQPLTSTQGLEHAAAGGSSG [FBF1] | 5.3 ± 0.2 | 5.44 ± 0.15
30 | CGKCFSQNTHLTRHQRTHTGEKPY [ZNF263] | 2.94 ± 0.16 | 3.22 ± 0.14
31 | AQQDLAPDPDAWLRALGELLRRDL [FANCE] | 3.11 ± 0.4 | 3.15 ± 0.3
32 | MRAAALCDKHSKLFEEPEDPSNRS [PPP2R2C] | 5.14 ± 0.12 | 5.17 ± 0.12
33 | YSDNPCSCSQSHCCSRYLCMGAMS [SPRY1] | 2.62 ± 0.22 | 2.71 ± 0.35
34 | RVEESGSKKEGKRQGPKEPPRKSG [PBXIP1] | 5.33 ± 0.17 | 5.33 ± 0.48
35 | SAVVGDVLVLTKPLGTQVAVNAHQ [SEPHS2] | 2.95 ± 0.3 | 3.1 ± 0.31
36 | EGSVACLWWDPIQRLLFSGASDNS [WDFY1] | 2.36 ± 0.32 | 2.43 ± 0.1
37 | YGSDQQHHLGSGSGAGGTGGPAGQ [MYOZ1] | 4.93 ± 0.23 | 4.77 ± 0.28
38 | LKENNFQPYPLPHVRHMAYQLCHA [CLK3] | 2.46 ± 0.12 | 2.21 ± 0.26
39 | EHDAWFIFFMAAFAFSNGYLASLC [SLC29A1] | 3.19 ± 0.5 | 3.25 ± 0.48
40 | VAACTKEIDTQGRHLAHSMLQRAI [C10orf62] | 2.86 ± 0.41 | 2.9 ± 0.14
41 | SKTFLCIGSSVMAASLVTMGIVNL [SLC2A12] | 3.19 ± 0.72 | 3.3 ± 0.54
42 | EFPESRKPISTKSQFLKHQQTHNI [ZNF649] | 3.72 ± 0.47 | 3.57 ± 0.5
43 | LEEQLQGWGEVMLMADKVLRWERA [ARL6IP1] | 2.49 ± 0.31 | 2.49 ± 0.27
44 | EPAGSLRELGVWRSLLRLRATRAG [C2CD2L] | 2.88 ± 0.29 | 3.06 ± 0.46
45 | RLCFFPFVENGHSESSGQTHLEGD [CFHR2] | 4.01 ± 0.099 | 4.37 ± 0.15
46 | RVKLTKRSGHTQTDYINASFMDGY [PTPN9] | 2.75 ± 0.14 | 2.87 ± 0.27

Row | Sequence | protein stability index (treatment: DMSO) | protein stability index (treatment: MLN4924 1 uM, 8 h)
47 | LEEDLYELFKKDPGFDRGQFHKQI [PI4K2A] | 3.56 ± 0.14 | 3.56 ± 0.19
48 | VGKTRLICARACNATLTQYQLLAT [RHOBTB2] | 2.28 ± 0.34 | 2.17 ± 0.31
49 | DMLLEKLPQVAEEISGPLTSANKI [FLOT1] | 4.15 ± 0.19 | 4.43 ± 0.16
50 | EEEVVEGEKEVEALKKSADWVSDW [BNIP3L] | 5.08 ± 0.25 | 5.36 ± 0.34
51 | ASDPLLSSVSPAVSKASSRRSSFS [TFE3] | 4.69 ± 0.15 | 4.79 ± 0.25
52 | MVHINRALKLIIRLFLVEDLVDSL [RTN3] | 2.88 ± 0.31 | 2.92 ± 0.53
53 | PWVKELQDSKEMKQLLDSKIGFEI [ZNF449] | 2.9 ± 0.49 | 3.01 ± 0.65
54 | QMTPTNLAVCLAPSLFHLNTLKRE [DLC1] | 2.79 ± 0.044 | 2.53 ± 0.036
55 | VVGLHAASKDPREVREARDHKEPK [EHMT1] | 5.06 ± 0.13 | 5.11 ± 0.052
56 | QAAPGALPVSSPEPPPALPPAADA [TRIM55] | 5.46 ± 0.15 | 5.37 ± 0.28
57 | SLLPAQVAACAQTVVSLAAAGQPT [CEBPD] | 3.24 ± 0.9 | 2.9 ± 0.37
58 | DPIIDSWEVVTSMGTQRCDAGVCV [KLHL12] | 3 ± 0.21 | 2.95 ± 0.39
59 | DAGGIPRTAQSEETRVWHRRDGKW [CAMK2A] | 4.92 ± 0.13 | 4.86 ± 0.1
60 | RQTTGLMEYCLEVIKENDPSGFLQ [TRIM9] | 3.11 ± 0.24 | 3.05 ± 0.34
61 | QLLYSPIENIQRVAAGVLCELAQD [CTNNB1] | 2.29 ± 0.24 | 2.27 ± 0.27
62 | DGTGASQEPPTTDSQEAQSPGHSS [TOR1AIP2] | 5.56 ± 0.26 | 5.54 ± 0.24
63 | EEWGQLDPTQRILYRDVMLETFGH [ZNF8] | 2.91 ± 0.32 | 3.22 ± 0.38
64 | RYVLKAGQTVTIWAANAGVTASPP [LMNB1] | 3.62 ± 0.27 | 3.49 ± 0.24
65 | SAIYKWITDNFCYFRHADPTWQNS [FOXJ1] |  | 2.57 ± 0.4
66 | FVAENSSLHPESGQENDATSPHFS [CD69] | 3.74 ± 0.56 | 4.23 ± 0.42
67 | QQLYYTEADYEDDSKIAFLMQLQD [IQUB] | 3.45 ± 0.54 | 3.48 ± 0.51
68 | MVSALRGAPLIRVHSSPVSSPSVS [SPACA3] | 2.85 ± 0.39 | 3.08 ± 0.3
69 | DSQRVASVSLDRCIKIWDVTSQAT [WDR88] | 3.1 ± 0.22 | 3.12 ± 0.17

Row | Sequence | protein stability index (treatment: DMSO) | protein stability index (treatment: MLN4924 1 uM, 8 h)
70 | FLFAKLFSHITSARKARKYEIPHF [PHTF1] | 3 ± 0.43 | 2.79 ± 0.62
71 | GEPLEKVASVGNSRPTGQQLESLG [KISS1] | 5.04 ± 0.25 | 5.1 ± 0.13
72 | WSIVGMAVVKGIQSSGKVMYFSSL [SLC6A17] | 2.94 ± 0.68 | 2.6 ± 0.78
73 | ELETVDFKDKLEETKGQINNSIKD [SERPINB5] | 5.29 ± 0.46 | 5.51 ± 0.12
74 | KTAGKENHFDMHRVGKWHQDFPVK [ZNF75A] | 3.09 ± 0.36 | 3.38 ± 0.13
75 | EMSIHLSRPNGTSAMLLVTLGKVL [MED27] | 2.41 ± 0.46 | 2.2 ± 0.26
76 | IVIADVKLVADFQRYILYWRKRFT [ZNF277] | 2.48 ± 0.57 | 2.48 ± 0.46
77 | SRLQEDPEGTENPLGVDESLFSYG [SLA] | 4.91 ± 0.058 | 4.66 ± 0.69
78 | LPEQVDIIISEPMGYMLFNERMLE [CARM1] | 2.24 ± 0.69 | 2.12 ± 0.42
79 | LLRQQLMRAQAQEQERRERREQAA [TFE3] | 3.82 ± 0.27 | 4.2 ± 0.15
80 | EEEEEEEAAGVVVEEELFHQQGTP [LMNB1] | 5.38 ± 0.31 | 5.47 ± 0.41
81 | ESGASIEDHNENGHTPLMEAGSAG [ANKRD17] | 5.47 ± 0.25 | 5.35 ± 0.28
82 | AAVESVLHLGLPWRMLRPQLVNSS [PPEF2] | 2.74 ± 0.81 | 2.46 ± 0.41
83 | RSQSSIVPEEEQAANKGEEKKDDE [SMARCE1] | 5.63 ± 0.25 | 5.68 ± 0.14
84 | ILGSGEEGPQVGPSAAQTLRSFCA [ADAMTS4] | 3.7 ± 0.5 | 3.95 ± 0.53
85 | VAGVLPDIEQFFNIGDSSSGLIQT [SPNS1] | 3.16 ± 0.25 | 3.32 ± 0.43
86 | VQIKTWFQNRRMKHKRQMQDPQLH [VENTX] | 2.55 ± 0.4 | 2.52 ± 0.34
87 | TKWVDYSNKYGFGYQLSDHTVGVL [PLK2] | 2.19 ± 0.33 | 2.08 ± 0.19
88 | ANLPVPTIAAIDGLALGGGLELAL [AUH] | 2.35 ± 0.37 | 2.02 ± 0.55
89 | RKVAGMAKPNMIISVNGDVITIKS [FABP4] | 2.37 ± 0.66 | 2.43 ± 0.26
90 | TASGDCYTFGSNQHGQLGTNTRRG [NEK8] | 4.56 ± 0.14 | 4.67 ± 0.15
